Columns and labels:
His-p53 = experiment: DNA-protein ELISA; details: EMSA: 100 ng p53 (or 5 ug KB nuclear extract), 3 ng probe, 30 min at RT, 4% native PAGE with 0.5x TBE, buffer per ref [25]; ELISA: p53 in PBS on PAb421, 0.5 ug …
GST-p53 = experiment: DNA-protein ELISA; details: EMSA: 100 ng p53 (or 5 ug KB nuclear extract), 3 ng probe, 30 min at RT, 4% native PAGE with 0.5x TBE, buffer per ref [25]; ELISA: p53 in PBS on PAb421, 0.5 ug …

Substance: biotin-p21-5'-DBS
- binding signal (% protection of DBS binding) (His-p53): 60
- binding signal (% protection of DBS binding) (GST-p53): 60
